# Laboratory results: the Immune Epitope Database (IEDB)
# Molecular target: HLA-A*02:02
# Assay: IEDB peptide-MHC binding, purified MHC/competitive/radioactivity; ≥ and ≤ were set here for values at or beyond the usual limits of such assays
# Conditions: source organism: Hepacivirus hominis
row,Sequence,IC50 [nM]
1,YVLLLFLLLA,1050

# Same assay, conditions: source organism: Influenza A virus
row,Sequence,IC50 [nM]
1,AAFEDLRLL,4450
2,RLTILGKDA,1560
3,RTLFQQMRDVL,1890
4,SAFDERRNKYL,1090
5,TTQIIKLLPFA,2190

# Same assay, conditions: source organism: Mammarenavirus guanaritoense
row,Sequence,IC50 [nM]
1,FMNDLQVSR,249

# Same assay, conditions: source organism: Vaccinia virus WR
row,Sequence,IC50 [nM]
1,AIRAGYSIV,1200
2,ALKNSQAELT,2120
3,AMHDKKIDIL,387
4,DTIAHINTLI,1160
5,EIDVSEVKTL,4950
6,EILSNTTKTL,345
7,EMKYALINLV,1260
8,GIKNLKSLL,2140
9,GLCNYGGILI,152
10,HLRASTTENA,488
11,IIAVFDSKLI,758
12,ITFLRPVLKA,3160
13,KQNKFGDSPL,90
14,LATLNTLIT,1160
15,LIKTLSPAHL,1850
16,LITNTKSDNI,2250
17,LLKETIQKDI,3060

row,Sequence,IC50 [nM]
1,LVDKEDTDIV,3700
2,NLYISDYKML,1250
3,NMKPNFWSRI,1680
4,NVKSKLLWFL,2290
5,PASKKESVI,1350
6,PLSINVSGV,1120
7,RILSEKRKDT,711
8,RLRQDTEDIV,134
9,SLKRFTHTT,825
10,SVGTGILFM,1090
11,SVQLSNNKYV,1220
12,TLLNETAKVI,2860
13,TLNEYKQLYT,144
14,VADLSARNKL,1170
15,WLTPFEKEFT,2370
16,YIENTNQGNI,1220
17,YLSKEDRII,305

# Molecular target: HLA-A*02:01
# Assay: as above
# Conditions: source organism: Hepacivirus hominis
row,Sequence,IC50 [nM]
1,YVLLLFLLLA,866

# Same assay, conditions: source organism: Influenza A virus
row,Sequence,IC50 [nM]
1,CVNGSCFTV,3940

# Same assay, conditions: source organism: SARS-CoV1
row,Sequence,IC50 [nM]
1,YLVQQESSFV,76

# Same assay, conditions: source organism: Vaccinia virus WR
row,Sequence,IC50 [nM]
1,AVIIMAINV,963
2,DINVIGLIVI,1360
3,EISSNDNAKI,508
4,EVIERINLLV,2700
5,FTDCRTIDA,3770
6,GIKGLDERFV,4390
7,ITRLEVIGL,3660
8,IVAAVIIMA,1810
9,IVCSKTVKNV,1420
10,NIYRLFTRCA,810
11,TISWMMKLGI,4570
12,YLSKEDRII,1500

# Molecular target: HLA-A*02:03
# Assay: as above
# Conditions: source organism: Hepacivirus hominis
row,Sequence,IC50 [nM]
1,YVLLLFLLLA,727

# Same assay, conditions: source organism: Influenza A virus
row,Sequence,IC50 [nM]
1,AAFEDLRLL,1470
2,CVNGSCFTV,1130
3,NVMGMIGI,4810
4,RLTILGKDA,3510
5,RTLFQQMRDVL,3830
6,SAFDERRNKYL,2480
7,TTQIIKLLPFA,3430

# Same assay, conditions: source organism: Mammarenavirus guanaritoense
row,Sequence,IC50 [nM]
1,FMNDLQVSR,915

# Same assay, conditions: source organism: Mammarenavirus lassaense
row,Sequence,IC50 [nM]
1,MSIQLINKAV,1800

# Same assay, conditions: source organism: SARS-CoV1
row,Sequence,IC50 [nM]
1,YLVQQESSFV,17

# Same assay, conditions: source organism: Vaccinia virus WR
row,Sequence,IC50 [nM]
1,AIRAGYSIV,0.21
2,ALKNSQAELT,980
3,AMHDKKIDIL,1180
4,AVIIMAINV,2760
5,CTIVDSMII,1790
6,DINVIGLIVI,2810
7,DISDVKVLAA,2200
8,DLTALLSCI,996
9,DTIAHINTLI,114
10,EIDVSEVKTL,2240
11,EILSNTTKTL,101
12,EISSNDNAKI,194
13,EMKYALINLV,283
14,EVIERINLLV,3320
15,FTDCRTIDA,2680
16,GIKGLDERFV,844
17,GIKNLKSLL,2620
18,GLCNYGGILI,3210
19,GVPHSVFIA,3630
20,HINDQKFDDV,1160
21,HLRASTTENA,38
22,HTNHSDISM,4140
23,IIAVFDSKLI,595
24,ITFLRPVLKA,718
25,ITPTIEDDKI,4200
26,ITRLEVIGL,213
27,IVAAVIIMA,2660
28,IVCSKTVKNV,503

row,Sequence,IC50 [nM]
1,KLVETGFVI,1070
2,KQNKFGDSPL,216
3,LATLNTLIT,1550
4,LIKTLSPAHL,356
5,LITNTKSDNI,3080
6,LLKETIQKDI,782
7,LVDKEDTDIV,1680
8,MAAAKTPVIV,156
9,NIYRLFTRCA,138
10,NLYISDYKML,1830
11,NMKPNFWSRI,193
12,NTFVNFNSV,100
13,NVKSKLLWFL,633
14,PASKKESVI,1760
15,PLSINVSGV,45
16,RILSEKRKDT,4160
17,RLRQDTEDIV,284
18,SLKRFTHTT,9.1
19,SVGTGILFM,2250
20,SVQLSNNKYV,820
21,TISWMMKLGI,972
22,TLLNETAKVI,2130
23,TLNEYKQLYT,773
24,VADLSARNKL,2160
25,WLTPFEKEFT,1550
26,YIENTNQGNI,582
27,YLSKEDRII,435

# Molecular target: HLA-A*68:02
# Assay: as above
# Conditions: source organism: Influenza A virus
row,Sequence,IC50 [nM]
1,CVNGSCFTV,3240
2,NVMGMIGI,187

# Same assay, conditions: source organism: Mammarenavirus lassaense
row,Sequence,IC50 [nM]
1,MSIQLINKAV,11

# Same assay, conditions: source organism: SARS-CoV1
row,Sequence,IC50 [nM]
1,YLVQQESSFV,3410

# Same assay, conditions: source organism: Vaccinia virus WR
row,Sequence,IC50 [nM]
1,AVIIMAINV,1240
2,CTIVDSMII,3080
3,DINVIGLIVI,2190
4,DISDVKVLAA,4980
5,DLTALLSCI,1780
6,EISSNDNAKI,122
7,EVIERINLLV,20
8,FTDCRTIDA,3420
9,GIKGLDERFV,492
10,GVPHSVFIA,2990
11,HINDQKFDDV,1120
12,HTNHSDISM,26
13,ITPTIEDDKI,2190
14,ITRLEVIGL,4460
15,IVAAVIIMA,24
16,IVCSKTVKNV,1730
17,KLVETGFVI,1060
18,MAAAKTPVIV,1210
19,NIYRLFTRCA,250
20,NTFVNFNSV,5.8
21,TISWMMKLGI,1480

# Molecular target: HLA-A*02:06
# Assay: as above
# Conditions: source organism: Influenza A virus
row,Sequence,IC50 [nM]
1,CVNGSCFTV,1990
2,NVMGMIGI,2060

# Same assay, conditions: source organism: Mammarenavirus lassaense
row,Sequence,IC50 [nM]
1,MSIQLINKAV,619

# Same assay, conditions: source organism: SARS-CoV1
row,Sequence,IC50 [nM]
1,YLVQQESSFV,386

# Same assay, conditions: source organism: Vaccinia virus WR
row,Sequence,IC50 [nM]
1,AVIIMAINV,65
2,CTIVDSMII,4580
3,DINVIGLIVI,2800
4,DISDVKVLAA,4610
5,DLTALLSCI,4880
6,EISSNDNAKI,162
7,EVIERINLLV,300
8,FTDCRTIDA,2710
9,GIKGLDERFV,940
10,GVPHSVFIA,101
11,HINDQKFDDV,1190
12,HTNHSDISM,1200
13,ITPTIEDDKI,1500
